PMC5490839 (Nature immunology, 2016)
Where no end group is shown, it is not given here.

Molecular target: T1, Zap70 D461N-tagged (Myc- or hemagglutinin-tagged, kinase-inactive Zap70) (human, UniProt P43403 1-619, D461N)
T1 sequence (looked up): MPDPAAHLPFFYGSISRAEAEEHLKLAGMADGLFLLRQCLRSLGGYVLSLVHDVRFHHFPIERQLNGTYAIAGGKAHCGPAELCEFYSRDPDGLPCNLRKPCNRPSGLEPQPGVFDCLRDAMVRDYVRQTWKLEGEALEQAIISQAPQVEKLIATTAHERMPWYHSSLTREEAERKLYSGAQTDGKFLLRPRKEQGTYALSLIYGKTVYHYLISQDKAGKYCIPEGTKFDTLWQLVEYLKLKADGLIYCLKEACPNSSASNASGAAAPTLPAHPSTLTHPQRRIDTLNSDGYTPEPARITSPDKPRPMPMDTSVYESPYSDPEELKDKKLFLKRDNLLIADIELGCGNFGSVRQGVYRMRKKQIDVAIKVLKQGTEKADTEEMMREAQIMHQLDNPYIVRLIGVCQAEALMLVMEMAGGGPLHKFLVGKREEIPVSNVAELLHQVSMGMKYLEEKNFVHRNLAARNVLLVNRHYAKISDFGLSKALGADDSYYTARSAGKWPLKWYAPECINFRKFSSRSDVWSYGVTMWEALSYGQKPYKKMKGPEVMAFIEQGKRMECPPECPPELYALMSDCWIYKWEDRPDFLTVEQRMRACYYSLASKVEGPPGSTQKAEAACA
Assay: ELISA

Question: Does GGAGQDGVRQSRASDKQTLLPNDQLYQPLKDREDDQYSHLQGNQLRRN (domain or fragment, also: ITAM phosphorylated by Lck, sites not given here, GST fusion) bind?
Answer: Result: binds
